One data set has as its target T1, His::Svp (Drosophila melanogaster, UniProt P16375 1-543).
T1 sequence: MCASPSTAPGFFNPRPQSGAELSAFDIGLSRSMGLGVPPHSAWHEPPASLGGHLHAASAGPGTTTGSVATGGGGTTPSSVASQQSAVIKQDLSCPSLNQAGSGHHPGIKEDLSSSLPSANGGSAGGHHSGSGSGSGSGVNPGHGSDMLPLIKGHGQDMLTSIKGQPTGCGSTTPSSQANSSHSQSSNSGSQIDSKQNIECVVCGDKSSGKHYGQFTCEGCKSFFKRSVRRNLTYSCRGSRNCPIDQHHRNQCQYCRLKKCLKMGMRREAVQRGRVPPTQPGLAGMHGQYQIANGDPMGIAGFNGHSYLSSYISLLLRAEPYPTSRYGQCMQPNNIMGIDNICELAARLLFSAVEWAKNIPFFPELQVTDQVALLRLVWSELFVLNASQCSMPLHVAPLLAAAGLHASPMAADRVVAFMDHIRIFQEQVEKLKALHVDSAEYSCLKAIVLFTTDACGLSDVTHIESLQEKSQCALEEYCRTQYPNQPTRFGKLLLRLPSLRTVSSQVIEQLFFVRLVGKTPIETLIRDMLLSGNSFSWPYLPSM
Kind of data set: EMSA; with or without poly(dI-dC); out-competed by WT at 20:1; Ap: 20 mM HEPES pH 7.8, 50 mM KCl, 10% glycerol, 0.25 mM EDTA, 0.1 mg/ml BSA, 1 mM DTT, 21 C; Mad: 25 mM Tris pH 7.5, 35 mM KCl, 80 mM NaCl, 5 mM MgCl2, 3.5 mM. The settings on record: protein: recombinant; tags: N-term His; GST removed with PreScission protease; chain copies: 2; label: IRDye 700. (In general: Mobility shift assays separate free from complexed probe on a gel.)

For data set [1], the target named is T2, GST-MH1-Mad (GST-MadN) (Drosophila melanogaster, UniProt P42003 26-150). Kind of data set: competition; vs labeled BMP-RE; Ap: 20 mM HEPES pH 7.8, 50 mM KCl, 10% glycerol, 0.25 mM EDTA, 0.1 mg/ml BSA, 1 mM DTT, 21 C; Mad: 25 mM Tris pH 7.5, 35 mM KCl, 80 mM NaCl, 5 mM MgCl2, 3.5 mM. To be noted: protein: recombinant; tags: GST (pGEX6p1); label: unlabeled.
T2 sequence (P42003 26-150): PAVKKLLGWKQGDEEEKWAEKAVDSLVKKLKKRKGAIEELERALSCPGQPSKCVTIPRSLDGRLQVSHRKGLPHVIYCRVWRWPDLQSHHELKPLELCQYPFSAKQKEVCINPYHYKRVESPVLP
For data set [2], the target named is T2, GST-MH1-Mad (GST-MadN). In words: EMSA; 1 ug poly(dI-dC), 5 mM MgCl2; out-competed by unlabeled WT; Ap: 20 mM HEPES pH 7.8, 50 mM KCl, 10% glycerol, 0.25 mM EDTA, 0.1 mg/ml BSA, 1 mM DTT, 21 C; Mad: 25 mM Tris pH 7.5, 35 mM KCl, 80 mM NaCl, 5 mM MgCl2, 3.5 mM. The settings on record: protein: recombinant; tags: GST (pGEX6p1); label: IRDye 700.

The record followed here is publication PMC4694770, “Gene Regulatory Mechanisms Underlying the Spatial and Temporal Regulation of Target-Dependent Gene Expression in Drosophila Neurons”.

B1: DR1 Svp probe (dsDNA)
DNA 1: AGCTCTCAGGTCAGAGGTCAGAGAGCT
DNA 2: AGCTCTCTGACCTCTGACCTGAGAGCT
Turning to B1, in the data set with His::Svp, the binding result is given as “binds”.

B2: MutMad BMP-RE competitor (dsDNA)
DNA 1: GCCAGATAGTAGACAATGTATCCCGTT
DNA 2: AACGGGATACATTGTCTACTATCTGGC
For B2, in the data set with GST-MH1-Mad (GST-MadN) [1], the binding result was “no binding”.

B3: BMP-RE probe (dsDNA)
DNA 1: GCCAGAGGCGCCACAATGTATCCCGTT
DNA 2: AACGGGATACATTGTGGCGCCTCTGGC
With B3, in the data set with GST-MH1-Mad (GST-MadN) [2], the binding result was “binds”.
